Test results from US11844813 (ST ANNA KINDERKREBSFORSCHUNG, dated 2023).
Numbering of substitutions follows the chain as printed.

What was measured:
[1] = biological target: T1, Human His-tagged RBP4 (residues 19-201), soluble (human, UniProt P02753 19-201); test: yeast surface display, flow cytometry: soluble His-tagged RBP4 titrated on yeast displaying the binder, anti-penta-His detection, with 5 µM A1120; mean of three
From the text: (§1) "a" can be part of a soluble protein (secreted or exogenously added) or of a transmembrane construct and "c" can be part of a signal transducing construct (shown in A and B). Of course, "a" and "c" can be integrated in the constructs vice versa (not shown). There are many more possible arrangements (not shown). […] RBP4-binding was detected with an anti-penta-His antibody and subsequently analyzed by flow cytometry.

[2] = biological target: T1, Human His-tagged RBP4 (residues …); test: yeast surface display, flow cytometry: soluble His-tagged RBP4 titrated on yeast displaying the binder, anti-penta-His detection, with 5 µM A1120
From the text: as §1

[3] = biological target: T1, Human His-tagged RBP4 (residues …); test: yeast display, + A1120; mean ± S.D., n=3
[4] = biological target: T1, Human His-tagged RBP4 (residues …); test: ITC, + A1120; mean ± S.D., n=4
Protocol: (§2) The samples were centrifuged (17000 g, 10 min, 20° C.) and dialysed against the same buffer (PBS). RBP4 protein solution was applied to the sample cell and the respective RBP4 binding interaction partners were titrated with varying intervals. Different concentrations both for RBP4 and RBP4 binding interaction partners were used. […] Data analysis was performed with the MicroCal PEAQ-ITC analysis software and the resulting data were fitted to a one-set-of-sites binding model. […] The integrated data were fitted to one-set-of-sites binding model to calculate the K_D values in FIG. 18.

[5] = biological target: T1, Human His-tagged RBP4 (residues …); test: ITC; ratio of the KD without to the KD with A1120
Protocol: as §2

[6] = biological target: T1, Human His-tagged RBP4 (residues …); test: ITC, -A1120; mean ± S.D., n=4
Protocol: as §2

[7] = biological target: T1, Human His-tagged RBP4 (residues …); test: yeast surface display, flow cytometry: soluble His-tagged RBP4 titrated on yeast displaying the binder, anti-penta-His detection, with 5 µM A1120; mean of three; remark: listed apart in the source
Protocol: All small molecules were present at a concentration of 5 µM. RBP4-binding was detected with an anti-penta-His antibody and subsequently analyzed by flow cytometry.

[8] = biological target: T1, Human His-tagged RBP4 (residues …); test: SPR, -A1120; mean ± S.D., n=4
Protocol: (§3) The antigen (RBP4) was coated onto a CM5 chip (GE Healthcare) and incubated with various concentrations of lipocalin-fold binding interaction partner solution in HBS-EP (GE Healthcare), followed by a dissociation phase in HBS-EP. […] Finally, K_d values (dissociation constants) were obtained by steady-state analysis.

[9] = biological target: T1, Human His-tagged RBP4 (residues …); test: SPR (Biacore T200), single-cycle kinetics, RBP4 immobilised on a CM5 chip, RS3 injected at 937.5-15000 nM, without A1120; steady-state analysis; one representative experiment of four
Protocol: (§4) Applied concentrations of RS3 are indicated in the plots. […] Figure 17B: Figure 17C:
as §3

[10] = biological target: T1, Human His-tagged RBP4 (residues …); test: SPR, + A1120; mean ± S.D., n=4
Protocol: as §3

[11] = biological target: T1, Human His-tagged RBP4 (residues …); test: SPR (Biacore T200), single-cycle kinetics, RBP4 immobilised on a CM5 chip, RS3 injected at 6.25-100 nM, with 5 µM A1120; steady-state analysis; one representative experiment of four
Protocol: as §4, §3

B1: RF3, FN3-based lipocalin-fold binding interaction partner, displayed on the surface of yeast (designed binder)
chain: VSDVPRDLEVVAATPTSLLISWYYPNASHAGYYRITYGETGGNSPVQEFTVPFSIRYTIATISGLKPGVDYTITVYAVTASCQYCSYPISINYRTEIDKPSQ
notes: not shown: Yeast-display carrier of the pCTCON2 construct (Aga2p anchor, HA tag, linker, c-myc tag)
- Kd [1]: 67 nM

B2: RF2, FN3-based lipocalin-fold binding interaction partner, displayed on the surface of yeast (designed binder)
chain: VSDVPRDLEVVAATPTSLLISWYYPNASHAGYYRITYGETGGNSPVQEFTVPFSIRYTIATISGLKPGVDYTITVYAVTDYAYYYRLSEPISINYRTEIDKPSQ
notes: as for B1
- EC50 (read off the curve) [2]: ~40 nM
- Kd [3]: 65 nM
- Kd [1]: 41.8 nM

B3: RF2, FN3-based RBP4 binding interaction partner, soluble protein (designed binder)
chain: B2 chain
notes: Expressed in E. coli as His6-SUMO fusion; Monomeric by SEC
- Kd [4]: 279 nM
- KD,-A1120 / KD,+A1120 [5]: 16
- Kd [6]: 4380 nM

B4: RF1, FN3-based lipocalin-fold binding interaction partner, displayed on the surface of yeast (designed binder)
chain: B2 chain with I35V, Y71H, L87S
notes: as for B1
- Kd [1]: 169 nM
- EC50 (read off the curve) [7]: ~6 nM

B5: RS2, rcSso7d-based lipocalin-fold binding interaction partner, displayed on the surface of yeast (designed binder)
chain: ATVKLTYQGEEKQVDISKIKRVARYGQGIYFDYGEGGGAWGYGSVSEKDAPKELLQMLEKQ
notes: not shown: Yeast display carrier of pCTCON2 (Aga2p, HA tag, linker, C-terminal c-myc tag)
- EC50 (read off the curve) [2]: ~3 nM
- Kd [1]: 2.9 nM

B6: RS3, rcSso7d-based RBP4 binding interaction partner, soluble protein (designed binder)
chain: B5 chain with G28N, D32S, G34D, W40Y, G41D, S44A
notes: as for B3
- Kd [8]: 4950 nM
- Kd [9]: 6130 nM
- Kd [4]: 7 nM
- Kd [10]: 9 nM
- Kd [11]: 11 nM
- KD,-A1120 / KD,+A1120 [5]: 384
- Kd [6]: 2690 nM

B7: RS5, rcSso7d-based RBP4 binding interaction partner, soluble protein (designed binder)
chain: B5 chain with L5F, K48E
notes: as for B3
- Kd [8]: 11000 nM
- Kd [4]: 17 nM
- Kd [10]: 38 nM
- KD,-A1120 / KD,+A1120 [5]: 222
- Kd [6]: 3780 nM

B8: RS3, rcSso7d-based lipocalin-fold binding interaction partner, displayed on the surface of yeast (designed binder)
chain: B5 chain with G28N, D32S, G34D, W40Y, G41D, S44A
notes: as for B5
- EC50 (read off the curve) [2]: ~10 nM
- Kd [3]: 13 nM
- Kd [1]: 11.5 nM
- EC50 (read off the curve) [7]: ~20 nM

B9: RS4, rcSso7d-based lipocalin-fold binding interaction partner, displayed on the surface of yeast (designed binder)
chain: B5 chain with V3A, L5F, D32S, G34D, W40Y
notes: as for B5
- Kd [1]: 47.6 nM

B10: RS5, rcSso7d-based lipocalin-fold binding interaction partner, displayed on the surface of yeast (designed binder)
chain: B5 chain with L5F, K48E
notes: as for B1
- Kd [3]: 80 nM
- Kd [1]: 69.5 nM

B11: RS1, rcSso7d-based lipocalin-fold binding interaction partner, displayed on the surface of yeast (designed binder)
chain: ATVKFTYQGEEEQVDISKIKKVARYGQNIYFSYDEGGGAWDYGGVSEKDAPKELLQMLEKQ
notes: as for B5
- EC50 (read off the curve) [2]: 1 to 2 nM
- Kd [1]: 1.5 nM
